The values that follow come from patent US20250195685A1 (CAPSTAN THERAPEUTICS, published 2025).

The target in assay [1] is T1, human CD8αα homodimer, recombinant protein (Acro Biosystems) (human, UniProt P01732 22-182).
T1 construct: also called CD8αα antigen; biotinylated CD8α recombinant protein (CDA-H82E3)
Kind of assay: BLI steady state analysis of the data of FIG. 2D. The protocol:
The global fitting was performed with a 1:1 fitting model using GatorOne software as described below.
(§1) To assess affinity of whole antibodies, steady state analysis was used as the bivalent nature of both whole antibody and CD8α complicates kinetic analysis. 50 nM CD8α-His (that is, CD8α with a C-terminal oligohistidine tag; Acro) was immobilized on Ni-NTA sensor probes. Binding was analyzed with a three-fold antibody dilutions series: 60 nM, 20 nM, 6.67 nM, 2.22 nM, 0.74 nM, and 0.25 nM. The antigen-loaded sensors were incubated in the diluted solutions to capture the whole IgG antibody for 300 s to record the association phase. Sensors were incubated in the kinetic buffer for 900 s to record the dissociation phase. The spin speed was 1000 rpm for all steps except the antigen loading step which was 400 rpm to control density of the antigen. The temperature of the performed assays was at 30° C. during the association and dissociation phases. The sensor data were baseline subtracted and further analyzed in GatorOne software (version 2.10) to determine the equilibrium dissociation constants (KD) of the antibodies by fitting the signals of the steady states to the 1:1 binding model.

The target in assay [2] is T1, human CD8αα homodimer, recombinant …. The assay can be described thus: BLI, whole antibody, steady state dissociation constant (column head x10^-9M). The protocol:
as §1

In a further assay the target is T2, insulin (Sigma).
T2 construct: Antigen of the polyreactivity ELISA
T2 sequence (P01308 25-54, chain 1 of 2): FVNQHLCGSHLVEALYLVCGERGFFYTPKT
T2 sequence (P01308 90-110, chain 2 of 2): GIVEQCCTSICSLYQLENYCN
The assay can be described thus: polyreactive ELISA, insulin coated, 100 nM antibody. The protocol:
Insulin ([…]; Sigma) and dsDNA ([…]; Sigma) were coated onto 96-well high-binding ELISA microplates (Corning) at 50 μL per well overnight at 4° C. Plates were blocked with PBS with 0.5% BSA (blocking buffer) at room temperature (RT) for 1 h, followed by three washes with PBST (PBS with 0.1% Tween-20). 50 μL of 100 nM antibody in blocking buffer was added to each well and incubated at RT for 1 h, followed by six washes with 100 μL of PBS. 50 μL of diluted anti-human IgG-horseradish peroxidase (HRP) conjugate (Jackson ImmunoResearch) was added to the wells and incubated for 1 h followed by another six washes. Finally, 50 μL of 3, 3′, 5, 5′-Tetramethylbenzidine (TMB) substrate (Fisher Scientific) was added to each well to develop the detection signal. The reactions were stopped by adding 50 μL of 2 M sulfuric acid to each well. The absorbance was measured at 450 nm using a multimode microplate reader. Ustekinumab as the control antibody with low polyreactivity and bococizumab as a highly polyreactive antibody control were also included in the polyreactive ELISA assessment.
The first assessment tested for low non-specific binding to dsDNA and insulin by ELISA. […] Thus, by this standard, none of the tested antibodies were polyreactive.

Assay [3] deals with T3, human CD8 on cells (CD8-overexpressing HEK293T cells, SupT1, HPB-ALL, human T cells, transfected HEK293 of … (human, UniProt P01732 22-235)).
T3 construct: whole, on cells; also called cell surface CD8
T3 sequence (P01732 22-235): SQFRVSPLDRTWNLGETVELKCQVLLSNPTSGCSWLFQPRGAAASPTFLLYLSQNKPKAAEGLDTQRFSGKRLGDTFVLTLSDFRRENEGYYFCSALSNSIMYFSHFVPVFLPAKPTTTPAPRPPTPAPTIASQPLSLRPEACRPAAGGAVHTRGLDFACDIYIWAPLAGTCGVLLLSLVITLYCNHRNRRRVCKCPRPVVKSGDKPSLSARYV
The assay can be described thus: flow cytometry on SupT1 cells; SupT1 cells. The protocol: To obtain the results shown in FIG. 6, SupT1 (ATCC #CRL-1942) and HPB-ALL (DSMZ; ACC-483) were cultured in RPMI medium supplemented with 10% Fetal Bovine Serum (#97068-085; Avantor). To determine EC₅₀ values of cell binding from the anti-CD8α antibody, 2×10⁵ total cells were transferred to a V bottom 96-well culture plate (Corning). Cells were washed twice with Cell Staining buffer (#420201, Biolegend). The anti-CD8α antibody was diluted in four-fold antibody titration series from 60 μg/mL to […] into Cell Staining buffer. Cells were stained with each diluted antibody solution for 30 minutes on ice. Cells were then washed three times with Cell Staining buffer and primary antibody binding was detected by staining with anti-human Fc BV421 conjugate antibody (#410704, Biolegend) at 1:200 dilution for 30 minutes on ice. eFluor 780 Fixable Viability dye (eBioscience) at a 1:4000 dilution were also included in the detection antibody solutions. […] Flow cytometry data was analyzed by Flowjo 10 (Becton, Dickinson & Company) to measure the geometric median fluorescence intensity (gMFI) of the on-cell binding from each antibody. The gMFI values were normalized with the gMFI measured in the sample stained with only the secondary detection antibody and plotted against the concentration of the added antibodies. […]
On the technique in general: A flow cytometer gives signals particle by particle.

T1 sequence (P01732 22-182 limits assumed): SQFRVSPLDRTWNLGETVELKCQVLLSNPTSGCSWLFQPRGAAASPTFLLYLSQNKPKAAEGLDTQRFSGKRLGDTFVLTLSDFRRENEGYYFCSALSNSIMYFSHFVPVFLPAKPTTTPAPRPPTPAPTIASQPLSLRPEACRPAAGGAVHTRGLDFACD

B1: CBD1033 whole antibody, human IgG1 with Fc-silencing mutations L234A, L235A and P329A (CBD1033-hIgG1-LALAPA) (antibody, V domains shown)
VH: QVQLVQSGAEVKKPGASVKVSCKASRYTFTDYNLHWVRQAPGQGLEWMGFIYPYNGGTGYAQKFQGRVTMTVDTSTSTAYMELSSLRSEDTAVYYCARDHRYNEGVSFDYWGQGTTVTVSS
VL: DIQLTQSPSSLSASVGDRATITCRASESVDGFGNSFMNWYQQKPGKAPKLLIYLASNLESGVPSRFSGSGSGTDFTLTISSVQPEDFATYYCQQNNEDPYTFGQGTKLEIKR
notes: On tLNPs the antibody was SATA-modified or AJICAP-thiolated (CBD1033.29) and conjugated to the LNP; also called CBD1033.3; CBD1033 IgG1
With B1, the Kd stood at 2.27 nM in assay [1] and 1.43 nM in assay [2]. Also, in the assay with insulin (Sigma), the “polyreactivity ELISA score” value was 1. Also, in assay [3], the EC50 is 0.312 µg/mL.

For orientation: Kd means the equilibrium constant for the complex coming apart. For orientation: EC50 means the concentration that produces a half-maximal response. Low values mean a more potent agent, high ones a less potent agent.
